Source: publication PMC4877045

Biological target: cleaved human TNFα (human)
Assay: SEC; SEC-HPLC on an analytic TSK G3000SWXL column, PBS mobile phase, 1 ml/min, OD280; molecular weight estimated from retention time against a protein size standard; self-association (trimer)

cleaved human TNFα (ligand)
stoichiometry N: 3
